What is called IC50 is the concentration that gives 50% inhibition. A lower IC50 goes with inhibition by little substance.

Some results are limits rather than exact numbers.

Assay in all cases: cell-based or functional assay
Test [1] concerns the target HIV-1 93UG077 envelope glycoprotein (Env) (HIV-1).
Test [2] concerns the target HIV-1 94UG103 envelope glycoprotein (Env) (HIV-1).
The target in test [3] is HIV-1 APV17 envelope glycoprotein (Env) (HIV-1).
For test [4], the target named is HIV-1 MGRM-AG-005 envelope glycoprotein (Env) (HIV-1).
Test [5] addresses HIV-1 MGRM-D-001 envelope glycoprotein (Env) (HIV-1).
In test [6] the target is HIV-1 92UG005 envelope glycoprotein (Env), clade D pseudovirus (HIV-1).
Test [7] addresses HIV-1 92UG024 envelope glycoprotein (Env), clade D pseudovirus (HIV-1).
For test [8], the target named is HIV-1 APV6 envelope glycoprotein (Env), clade B pseudovirus (HIV-1).
For test [9], the target named is HIV-1 JR-CSF Env K343A (HIV-1 isolate JR-CSF) (UniProt P20871).
The target of test [10] is HIV-1 MGRM-C-026 envelope glycoprotein (Env), clade C pseudovirus (HIV-1).
Test [11] addresses HIV-1 MGRM-D-001 envelope glycoprotein (Env), clade D pseudovirus (HIV-1).
In test [12] the target is HIV-1 Env of isolate MGRM-C-028 (clade C) (HIV-1).
For test [13], the target named is HIV-1 Env of isolate MGRM-D-018 (clade D) (HIV-1).
Test [14] addresses Envelope protein of control pseudovirus MuLV (MuLV).
Test [15] has as its target HIV-1 Env of pseudovirus AC10 (HIV-1).
For test [16], the target named is HIV-1 Env of pseudovirus REJ04541 (HIV-1).
The target of test [17] is HIV-1 JR-FL Env E168K, on pseudovirus (HIV-1 isolate JR-FL (clade B)).
In test [18] the target is HIV-1 envelope glycoprotein (Env) of isolate CMU02 (HIV-1).
Test [19] deals with HIV-1 envelope glycoprotein (Env) of isolate MGRM-C-028 (HIV-1).
In test [20] the target is HIV-1 Env of isolate APV_13 (subtype B), on pseudovirus (HIV-1).
Test [21] has as its target HIV-1 Env of isolate JRFL (subtype B), on pseudovirus (HIV-1).
Test [22] has as its target HIV-1 Env of isolate MG RM-D-001 (subtype D) (HIV-1).
For test [23], the target named is HIV-1 Env of isolate MG RM-D-021 (subtype D) (HIV-1).
Test [24] deals with HIV-1 Env of isolate MG RM-D-022 (subtype D) (HIV-1).
Test [25] addresses HIV-1 envelope glycoprotein (Env) of isolate MG RM-A-002 (HIV-1).
The target of test [26] is HIV-1 94UG103 Env (pseudovirus) (HIV-1).
In test [27] the target is HIV-1 APV13 Env (pseudovirus) (HIV-1).
The target in test [28] is HIV-1 MGRM-C-026 Env (pseudovirus) (HIV-1).
Test [29] has as its target HIV-1 92RW020 envelope glycoprotein (Env) on pseudovirus (HIV-1).
In test [30] the target is HIV-1 JR-CSF Env R315A (HIV-1 (isolate JR-CSF, clade B)) (UniProt P20871).
Test [31] concerns the target HIV-1 93IN905 Env (HIV-1 isolate 93IN905 (clade C)).
In test [32] the target is HIV-1 APV6 Env (HIV-1 isolate APV6 (clade B)).
The target of test [33] is HIV-1 MGRM-C-027 Env (HIV-1 isolate MGRM-C-027 (clade C)).

5329_C19 (PGT-136) (antibody), sequence (VH): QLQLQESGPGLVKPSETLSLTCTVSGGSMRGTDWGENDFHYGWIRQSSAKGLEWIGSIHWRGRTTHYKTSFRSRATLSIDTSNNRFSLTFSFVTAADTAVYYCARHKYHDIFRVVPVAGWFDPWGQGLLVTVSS
5329_C19 (PGT-136) (antibody), sequence (VL): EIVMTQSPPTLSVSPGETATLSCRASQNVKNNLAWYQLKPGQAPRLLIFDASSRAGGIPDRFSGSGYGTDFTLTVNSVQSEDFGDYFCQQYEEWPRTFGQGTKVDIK
1443_C16 (PG16) (TCN-116) (antibody), sequence (VH): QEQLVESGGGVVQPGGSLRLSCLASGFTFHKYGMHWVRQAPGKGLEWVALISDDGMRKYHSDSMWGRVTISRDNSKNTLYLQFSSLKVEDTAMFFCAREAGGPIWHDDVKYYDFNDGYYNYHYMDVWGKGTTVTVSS
1443_C16 (PG16) (TCN-116) (antibody), sequence (VL): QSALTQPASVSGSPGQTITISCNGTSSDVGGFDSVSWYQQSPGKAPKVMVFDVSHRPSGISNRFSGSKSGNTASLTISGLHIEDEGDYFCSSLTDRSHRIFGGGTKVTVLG

As to 5329_C19 (PGT-136) (antibody), the Neutralization IC80 in [1], in [2], in test [3], in [4] and in test [5] was above 10 µg/mL throughout. Also, the Neutralization IC90 in test [1], in test [2], in test [3], in test [4] and in test [5] was above 10 µg/mL in each case. Moreover, the Neutralization IC95 in [1], in test [2], in test [3], in [4] and in test [5] was above 10 µg/mL each time. Besides, the neutralization IC50 in [1], in test [2], in [3], in [4] and in [5] was above 10 µg/mL in each case.
Take 4858_P08 (PGT-123) (antibody): the IC50, pseudovirus neutralization in test [6] is 2.49 µg/mL; in [7], above 10 µg/mL; in test [8], 0.0328 µg/mL; in test [10], 0.0031 µg/mL; in test [11], 0.215 µg/mL. Besides, the IC80 (pseudovirus neutralization) is above 10 µg/mL in [6]; above 10 µg/mL in [7]; 0.145 µg/mL in test [8]; 0.0094 µg/mL in [10]; 0.678 µg/mL in test [11]. In addition, the IC90 (pseudovirus neutralization) in test [6] is above 10 µg/mL; in test [7], above 10 µg/mL; in test [8] it was 0.339 µg/mL; in [10], 0.0183 µg/mL; in [11], 1.31 µg/mL. Further, the IC95 (pseudovirus neutralization) is above 10 µg/mL in test [6]; above 10 µg/mL in test [7]; 0.726 µg/mL in [8]; 0.0338 µg/mL in [10]; 2.33 µg/mL in test [11]. In addition, the Fold IC50 increase relative to wild-type in test [9] stood at 0.3 fold.
In test [12], 1496_C09 (PG9) (TCN-109) (antibody) yielded a Neutralization IC80 of 0.645 µg/mL, a Neutralization IC90 of 1.65 µg/mL, a Neutralization IC95 of 3.71 µg/mL and a neutralization IC50 of 0.121 µg/mL. Further, in test [13], the Neutralization IC80 came out at 0.18 µg/mL, the Neutralization IC90 worked out at 0.43 µg/mL, the Neutralization IC95 amounted to 1.05 µg/mL and the neutralization IC50 came to 0.0444 µg/mL.
In test [14], 1443_C16 (PG16) (TCN-116) (antibody) had an IC50, pseudovirus neutralization (TZM-bl assay), control virus above 25 µg/mL. Further, the IC50, pseudovirus neutralization (TZM-bl assay) in test [15] and in [16] was below 0.01 µg/mL in each case. Moreover, the IC50 (ug/ml), pseudovirus neutralization, TZM-bl assay in test [17] turned out to be 0.006 µg/mL.
As for 5141_B17 (PGT-126) (antibody), in test [18], the Neutralization IC80 was above 10 µg/mL, the Neutralization IC90 was above 10 µg/mL, the Neutralization IC95 was above 10 µg/mL and the neutralization IC50 was above 10 µg/mL. In [19], this substance returned a Neutralization IC80 of 2.62 µg/mL, a Neutralization IC90 above 10 µg/mL, a Neutralization IC95 above 10 µg/mL and a neutralization IC50 of 0.283 µg/mL.
PGV04 (antibody): the IC50, single-round pseudovirus neutralization is 1.23 µg/mL in test [20] and 0.032 µg/mL in test [21]. For the same substance, the IC50 (µg/mL), pseudovirus neutralization in test [22], in test [23] and in [24] was above 50 µg/mL in each case. In [25], this substance displayed an IC50 of 0.093 µg/mL.
In the case of 5123_A06 (PGT-125) (antibody), in test [26], the Neutralization by PGT-125, IC50 is 0.0124 µg/mL; the Neutralization by PGT-125, IC80 amounted to 0.0373 µg/mL; the Neutralization by PGT-125, IC90 came out at 0.071 µg/mL; the Neutralization by PGT-125, IC95 was determined as 0.129 µg/mL. For the same substance, in test [27], the Neutralization by PGT-125, IC50 came to 0.0128 µg/mL; the Neutralization by PGT-125, IC80 turned out to be 0.0414 µg/mL; the Neutralization by PGT-125, IC90 was 0.0821 µg/mL; the Neutralization by PGT-125, IC95 came to 0.154 µg/mL. In test [28], this substance came in with a Neutralization by PGT-125, IC50 of 0.0106 µg/mL; a Neutralization by PGT-125, IC80 of 0.035 µg/mL; a Neutralization by PGT-125, IC90 of 0.0705 µg/mL; a Neutralization by PGT-125, IC95 of 0.134 µg/mL.
In test [29], 5343_B08 (PGT-135) (antibody) registered a Neutralization IC80 of 3.46 µg/mL, a Neutralization IC90 above 10 µg/mL, a Neutralization IC95 above 10 µg/mL and a neutralization IC50 of 0.157 µg/mL. Further, the Fold IC50 increase relative to wild-type in [30] was 1.8 fold.
On to 4838_L06 (PGT-121) (antibody), for which, in test [31], the Neutralization IC80 was 0.0302 µg/mL and the Neutralization IC90 was found to be 0.0645 µg/mL. Besides, in [32], the Neutralization IC80 is 0.145 µg/mL and the Neutralization IC95 is 0.569 µg/mL. Besides, in test [33], the Neutralization IC80 was determined as 0.0829 µg/mL, the Neutralization IC90 worked out at 0.374 µg/mL and the Neutralization IC95 turned out to be 3.14 µg/mL.

The values are drawn from patent US20240132578A1.
